The values below come from patent US20230272055A1 (Incyte, published 2023).

T1: human mutCALR on BaF3 cells stably expressing human MPL and human mutCALR (MPL-mutCALR cells) (human)
T1 construct: also called mutant calreticulin
T1 chain: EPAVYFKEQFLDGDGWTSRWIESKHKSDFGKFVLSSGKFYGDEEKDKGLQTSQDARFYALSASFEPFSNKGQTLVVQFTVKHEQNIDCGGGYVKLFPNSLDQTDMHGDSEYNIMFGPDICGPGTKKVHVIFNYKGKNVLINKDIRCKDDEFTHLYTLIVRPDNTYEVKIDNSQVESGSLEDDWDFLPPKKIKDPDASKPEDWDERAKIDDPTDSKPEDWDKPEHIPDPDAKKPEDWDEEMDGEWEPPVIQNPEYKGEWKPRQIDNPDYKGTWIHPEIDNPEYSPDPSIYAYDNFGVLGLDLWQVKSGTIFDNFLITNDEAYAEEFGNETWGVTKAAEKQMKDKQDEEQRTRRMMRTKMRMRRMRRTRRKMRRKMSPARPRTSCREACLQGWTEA

B1: anti-mutCALR antibody clone 178 (antibody, human IgG1, lambda, N297A, V domains shown)
VH: EVQLVQSGAEVKKPGASVKVSCKVSGYTLTELSMQWVRQAPGKGLEWMGGFDPDEGETMYAEKFQGRLTVTEDTSTDTVYMELSSLRSEDTAVYFCATSPGYDFFDYWGQGTLVTVSS
VL: SYVLTQPPSVSVAPGQTARITCGGSDIGDEIVHWYQQKPGQAPVLVVYDDSDRPSGIPERFSGSNSGNTATLTISRAQAGDEADYYCQVWDSSSDHLIFGGGTKLTVLG
notes: human IgG1 N297A variant of clone 17
B2: anti-mutCALR antibody clone 176 (antibody, human IgG1, lambda, N297A, V domains shown)
VH: B1 VH with E55A
VL: B1 VL
B3: anti-mutCALR antibody clone 175 (antibody, human IgG1, lambda, N297A, V domains shown)
VH: B1 VH with E55D
VL: B1 VL
notes: as for B1
B4: anti-mutCALR antibody clone 177 (antibody, human IgG1, lambda, N297A, V domains shown)
VH: B1 VH with E55S
VL: B1 VL
notes: as for B1
B5: anti-mutCALR antibody clone 75 (antibody, human IgG1, lambda, N297A, V domains shown)
VH: B1 VH with E55D, S84R, R87T, V93L
VL: B1 VL with Q16K, S25N, D26N, D29S, E30K, I31S, A77V, Q78E, S94N, H96L
B6: anti-mutCALR antibody clone 78 (antibody, human IgG1, lambda, N297A, V domains shown)
VH: B1 VH with S84R, R87T, V93L
VL: B1 VL with Q16K, S25N, D26N, D29S, E30K, I31S, A77V, Q78E, S94N, H96L
B7: anti-mutCALR antibody clone 137 (antibody, human IgG1, lambda, N297A, V domains shown)
VH: B1 VH with S84R, R87T, V93L
VL: B1 VL with Q16K, S25D, D26N, D29S, E30K, I31S, A77V, Q78E, S94N, H96L
B8: anti-mutCALR antibody clone 138 (antibody, human IgG1, lambda, N297A, V domains shown)
VH: B1 VH with E55D, G56A, S84R, R87T, V93L
VL: B1 VL with Q16K, S25D, D26N, D29S, E30K, I31S, A77V, Q78E, S94N, H96L
B9: anti-mutCALR antibody clone 143 (antibody, human IgG1, lambda, N297A, V domains shown)
VH: B1 VH with E55D, G56A
VL: B1 VL with Q16K, S25D, D26N, D29S, E30K, I31S, A77V, Q78E, S94N, H96L
B10: anti-mutCALR antibody clone 128 (antibody, human IgG1, lambda, N297A, V domains shown)
VH: B1 VH with E55D, G56A, S84R, R87T, V93L
VL: SYELTQPPSVSVAPGKTARITCGGDNIGSKSVHWYQQKPGQAPVLVVYDDSDRPSGIPERFSGSNSGNTATLTINRVEAGDEADYYCQVWDSSNDLLIFGGGTKLTVLG
B11: anti-mutCALR antibody clone 131 (antibody, human IgG1, lambda, N297A, V domains shown)
VH: B1 VH with E55S
VL: B10 VL
B12: anti-mutCALR antibody clone 141 (antibody, human IgG1, lambda, N297A, V domains shown)
VH: B1 VH with E55S
VL: B10 VL with E3V, N75S
B13: anti-mutCALR antibody clone 133 (antibody, human IgG1, lambda, N297A, V domains shown)
VH: B1 VH with E55D, G56A
VL: B10 VL
B14: anti-mutCALR antibody clone 124 (antibody, human IgG1, lambda, N297A)
heavy: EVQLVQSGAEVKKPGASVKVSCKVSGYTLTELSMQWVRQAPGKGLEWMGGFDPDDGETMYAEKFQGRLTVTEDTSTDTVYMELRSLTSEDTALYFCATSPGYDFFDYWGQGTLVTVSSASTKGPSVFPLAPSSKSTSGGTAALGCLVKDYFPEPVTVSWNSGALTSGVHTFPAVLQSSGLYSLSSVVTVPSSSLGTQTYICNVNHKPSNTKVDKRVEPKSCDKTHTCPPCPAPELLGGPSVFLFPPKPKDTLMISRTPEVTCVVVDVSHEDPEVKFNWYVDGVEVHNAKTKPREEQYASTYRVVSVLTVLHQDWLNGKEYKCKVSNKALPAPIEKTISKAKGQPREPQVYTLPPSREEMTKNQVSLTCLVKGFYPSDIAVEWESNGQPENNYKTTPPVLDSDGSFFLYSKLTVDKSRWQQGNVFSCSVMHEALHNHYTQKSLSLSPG
light: SYELTQPPSVSVAPGKTARITCGGDNIGSKSVHWYQQKPGQAPVLVVYDDSDRPSGIPERFSGSNSGNTATLTINRVEAGDEADYYCQVWDSSNDLLIFGGGTKLTVLGQPKAAPSVTLFPPSSEELQANKATLVCLISDFYPGAVTVAWKADSSPVKAGVETTTPSKQSNNKYAASSYLSLTPEQWKSHRSYSCQVTHEGSTVEKTVAPTECS
B15: anti-mutCALR antibody clone 76 (antibody, human IgG1, lambda, N297A, V domains shown)
VH: B1 VH with E55A, S84R, R87T, V93L
VL: B10 VL with E3V, D25N, N75S
B16: anti-mutCALR antibody clone 77 (antibody, human IgG1, lambda, N297A, V domains shown)
VH: B1 VH with E55S, S84R, R87T, V93L
VL: B10 VL with E3V, D25N, N75S
B17: anti-mutCALR antibody clone 142 (antibody, human IgG1, lambda, N297A, V domains shown)
VH: B1 VH
VL: B10 VL with E3V, N75S
B18: anti-mutCALR antibody clone 127 (antibody, human IgG1, lambda, N297A, V domains shown)
VH: B1 VH with S84R, R87T, V93L
VL: B10 VL
B19: anti-mutCALR antibody clone 132 (antibody, human IgG1, lambda, N297A, V domains shown)
VH: B1 VH
VL: B10 VL
B20: anti-mutCALR antibody clone 79 (antibody, human IgG1, lambda, N297A, V domains shown)
VH: B1 VH with E55D, G56A, S84R, R87T, V93L
VL: B10 VL with E3V, D25N, N75S
B21: anti-mutCALR antibody clone 125 (antibody, human IgG1, lambda, N297A, V domains shown)
VH: B1 VH with E55A, S84R, R87T, V93L
VL: B10 VL
B22: anti-mutCALR antibody clone 83 (antibody, human IgG1, lambda, N297A, V domains shown)
VH: B1 VH
VL: B10 VL with E3V, D25N, N75S
B23: anti-mutCALR antibody clone 136 (antibody, human IgG1, lambda, N297A, V domains shown)
VH: B1 VH with E55S, S84R, R87T, V93L
VL: B10 VL with E3V, N75S
B24: anti-mutCALR antibody clone 84 (antibody, human IgG1, lambda, N297A, V domains shown)
VH: B1 VH with E55D, G56A
VL: B10 VL with E3V, D25N, N75S
B25: anti-mutCALR antibody clone 135 (antibody, human IgG1, lambda, N297A, V domains shown)
VH: B1 VH with E55A, S84R, R87T, V93L
VL: B10 VL with E3V, N75S
B26: anti-mutCALR antibody clone 81 (antibody, human IgG1, lambda, N297A, V domains shown)
VH: B1 VH with E55A
VL: B10 VL with E3V, D25N, N75S
B27: anti-mutCALR antibody clone 82 (antibody, human IgG1, lambda, N297A, V domains shown)
VH: B1 VH with E55S
VL: B10 VL with E3V, D25N, N75S
B28: anti-mutCALR antibody clone 134 (antibody, human IgG1, lambda, N297A)
heavy: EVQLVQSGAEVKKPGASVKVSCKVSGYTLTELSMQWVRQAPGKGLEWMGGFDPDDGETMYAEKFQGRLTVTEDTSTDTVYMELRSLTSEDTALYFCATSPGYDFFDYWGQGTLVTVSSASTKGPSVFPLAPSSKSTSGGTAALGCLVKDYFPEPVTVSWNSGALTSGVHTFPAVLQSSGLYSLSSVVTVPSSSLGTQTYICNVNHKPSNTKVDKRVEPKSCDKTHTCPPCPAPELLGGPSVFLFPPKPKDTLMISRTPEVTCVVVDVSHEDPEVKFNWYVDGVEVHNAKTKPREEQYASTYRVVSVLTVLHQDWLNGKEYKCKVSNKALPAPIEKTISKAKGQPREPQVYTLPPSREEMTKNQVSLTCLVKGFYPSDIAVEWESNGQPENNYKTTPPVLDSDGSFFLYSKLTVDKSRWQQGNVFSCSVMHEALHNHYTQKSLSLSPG
light: B14 light with E3V, N75S
B29: anti-mutCALR antibody clone 140 (antibody, human IgG1, lambda, N297A, V domains shown)
VH: B1 VH with E55A
VL: B10 VL with E3V, N75S
B30: anti-mutCALR antibody clone 130 (antibody, human IgG1, lambda, N297A, V domains shown)
VH: B1 VH with E55A
VL: B10 VL

Where a chain is given by its changes, count along the chain named. In names and notes the source's numbering stands.

For one assay, the target named is T2, Recombinant MBP-mutCALR Type 1 fusion protein (human).
T2 construct: custom made at Cepter; also called recombinant mutCALR protein
Kind of assay: SPR, IgG captured, 1:1 fit, Exp. 2. The procedure, abridged:
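Antibodies captured via amine-coupled anti-human IgG (Fc) on a CM4 chip; recombinant MBP-mutCALR Type 1 fusion protein as analyte. Run at 25 °C in Tris-buffered saline pH 7.2, 0.005% P20, 1 mM CaCl₂. Multiple-cycle kinetics fitted to a 1:1 binding model.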
Regarding B1, the Kd (in general, the constant that tells how readily two partners part at equilibrium) was determined as 1.21 nM; the koff (in general, the rate constant with which the complex falls apart) turned out to be 0.00123 s⁻¹; the kon (usually the second-order rate constant of association) stood at 1.02e+06 M⁻¹ s⁻¹.
In the case of B2, the dissociation constant Kd was found to be 2.8 nM, the koff turned out to be 0.00278 s⁻¹ and the kon worked out at 994000 M⁻¹ s⁻¹.
The matching figures for B3: 1.39 nM, 0.00631 s⁻¹ and 4.53e+06 M⁻¹ s⁻¹.
On to B4, for which the Kd is 1.49 nM, the koff turned out to be 0.00549 s⁻¹ and the kon amounted to 3.7e+06 M⁻¹ s⁻¹.

The next assay concerns the target T1, human mutCALR on BaF3 cells stably …. Kind of assay: flow cytometry, BaF3 MPL-mutCALR cells. The procedure:
On the day of the assay, cells were washed and resuspended in assay buffer. Approximately 200,000 cells/well were added to 96-well plates and stained with the indicated concentration of antibodies for 30 minutes on ice. Cells were then washed and stained with goat anti-human secondary conjugated to R-phycoerythrin (R-PE) (Jackson Immuno Research Laboratories) for 30 minutes on ice. The cells were then washed and analyzed by flow cytometry.
A general note: In flow cytometry, cells or beads pass a laser one at a time.
As to B5, the “MPL-mutCALR AUC” value was found to be 84900.
For the molecule B6, the EC50 (usually the midpoint of the concentration-response curve) is 5.5 ng/mL and the “MPL-mutCALR AUC” value came out at 64300.
B7: the EC50 was found to be 1.7 ng/mL and the “MPL-mutCALR AUC” value turned out to be 69700.
In the case of B8, the EC50 came out at 2.6 ng/mL and the “MPL-mutCALR AUC” value is 85800.
For B9, a half-maximal response (EC50) required 7.9 ng/mL and the “MPL-mutCALR AUC” value was 69900.
Turning to B10, the “MPL-mutCALR AUC” value worked out at 88900.
Regarding B11, the concentration giving a half-maximal response (EC50) was found to be 1.1 ng/mL and the “MPL-mutCALR AUC” value is 58300.
As for B12, the response was half-maximal at 6.3 ng/mL (EC50) and the “MPL-mutCALR AUC” value is 60800.
Regarding B13, the EC50 was determined as 1.7 ng/mL and the “MPL-mutCALR AUC” value stood at 85200.
As for B14, the “MPL-mutCALR AUC” value was determined as 93700.
Take B15: the EC50 was 8.2 ng/mL and the “MPL-mutCALR AUC” value was 55100.
Consider B16, for which the EC50 came out at 6.7 ng/mL and the “MPL-mutCALR AUC” value is 54200.
For B17 the same measures were 2.3 ng/mL and 71100.
As for B18, the EC50 was determined as 1.4 ng/mL and the “MPL-mutCALR AUC” value came to 73500.
The matching figures for B19: 0.4 ng/mL and 73400.
Take B20: the EC50 stood at 3.3 ng/mL and the “MPL-mutCALR AUC” value turned out to be 71900.
Take B21: the EC50 is 2.1 ng/mL and the “MPL-mutCALR AUC” value came to 62700.
As for B22, the EC50 amounted to 3.4 ng/mL and the “MPL-mutCALR AUC” value was 62800.
On to B23, for which a half-maximal effect (EC50) was put at 2 ng/mL and the “MPL-mutCALR AUC” value stood at 65000.
B24: the response was half-maximal at 2.9 ng/mL (EC50) and the “MPL-mutCALR AUC” value was determined as 82400.
B25: the EC50 is 3.2 ng/mL and the “MPL-mutCALR AUC” value is 56300.
Regarding B26, the EC50 stood at 8.2 ng/mL and the “MPL-mutCALR AUC” value is 52900.
With B27, the response was half-maximal at 4.8 ng/mL (EC50) and the “MPL-mutCALR AUC” value came to 50200.
B28: the “MPL-mutCALR AUC” value amounted to 96700.
As for B29, the 50% effective concentration (EC50) is 4.3 ng/mL and the “MPL-mutCALR AUC” value stood at 54700.
B30: the concentration for a half-maximal effect (EC50) was 1.7 ng/mL and the “MPL-mutCALR AUC” value turned out to be 58300.
